Results published in paper doi:10.1101/2025.11.04.686567, “Models for the architecture of the human inner kinetochore CCAN complex on centromeric α-satellite CENP-A nucleosome arrays”.

Biological target: CCAN (CENP-C, CENP-LN, CENP-HIKM, CENP-OPQUR, CENP-TWSX) (Homo sapiens, UniProt Q03188;Q8N0S6;Q96H22;Q9H3R5;Q92674;Q9BS16;Q9NSP4;Q9BU64;Q6IPU0;Q7L2Z9;Q71F23;Q13 …)
Assay: cryo-EM; mild cross-linking; 3.5 A; SEC on Superose 6 Increase or Agilent Bio SEC-5 1000A; buffer, salt, pH and temperature not given in the material
Settings: protein: recombinant; copies: 1;1;1;1;1;1;1;1;1;1;1;1;1;1;1;1

B1: native alpha-satellite 171 bp DNA (dsDNA)
DNA 1: CCGCTTTGAGGCCTTCGTTGGAAACGGGAATATGTTCACATAAAAACTAGACAGAAGCATTCTCAGAAACTTCTATGTGATGTTTGCATTCAACTCATAGAGTTGAACATTCCTTTTCATAGAGCAGTTTTGAAACACTCTTTTTGTAGTATCTGGAATTGGACATTTGGA
DNA 2: TCCAAATGTCCAATTCCAGATACTACAAAAAGAGTGTTTCAAAACTGCTCTATGAAAAGGAATGTTCAACTCTATGAGTTGAATGCAAACATCACATAGAAGTTTCTGAGAATGCTTCTGTCTAGTTTTTATGTGAACATATTCCCGTTTCCAACGAAGGCCTCAAAGCGG
B1: binds.
